The target in test [1] is PARP1 (residues 1 to 1014), P09874. Kind of test: SPR; biotinylated DNA SSB captured on a streptavidin chip, PARP1 (40 nM) flowed on to form a PARP1/DNA complex, then HPF1 injected at 62.5-2000 nM with 5 µM EB47 in the buffer; 25 mM HEPES pH 7.4, 250 mM NaCl, 0.1 mM TCEP, 1 mM EDTA, 0.05% Tween20; 1:1 model, steady-state plateaus and kinetic fit. As to conditions: remark: other sources report otherwise.

Test [2] has the same target. The description is as above. Particulars: remark: other sources report otherwise. This is another data set of the same source.

Several values for one entry are separate records, joined by “and”; a condition that tells them apart may be missing. Equal entries are not always repeated.

In general, Kd refers to the concentration at which binding is half-saturated. Read a high Kd as lower affinity. A word on the koff: it is a measure of how fast the partners let go of each other. Higher therefore signals a short-lived complex. What is called kon is the rate constant with which the complex forms. The low end stands for slow association, the high end for fast association.

PARP1 (residues 1 to 1014), P09874, sequence (P09874 whole entry, the tested form may be a part): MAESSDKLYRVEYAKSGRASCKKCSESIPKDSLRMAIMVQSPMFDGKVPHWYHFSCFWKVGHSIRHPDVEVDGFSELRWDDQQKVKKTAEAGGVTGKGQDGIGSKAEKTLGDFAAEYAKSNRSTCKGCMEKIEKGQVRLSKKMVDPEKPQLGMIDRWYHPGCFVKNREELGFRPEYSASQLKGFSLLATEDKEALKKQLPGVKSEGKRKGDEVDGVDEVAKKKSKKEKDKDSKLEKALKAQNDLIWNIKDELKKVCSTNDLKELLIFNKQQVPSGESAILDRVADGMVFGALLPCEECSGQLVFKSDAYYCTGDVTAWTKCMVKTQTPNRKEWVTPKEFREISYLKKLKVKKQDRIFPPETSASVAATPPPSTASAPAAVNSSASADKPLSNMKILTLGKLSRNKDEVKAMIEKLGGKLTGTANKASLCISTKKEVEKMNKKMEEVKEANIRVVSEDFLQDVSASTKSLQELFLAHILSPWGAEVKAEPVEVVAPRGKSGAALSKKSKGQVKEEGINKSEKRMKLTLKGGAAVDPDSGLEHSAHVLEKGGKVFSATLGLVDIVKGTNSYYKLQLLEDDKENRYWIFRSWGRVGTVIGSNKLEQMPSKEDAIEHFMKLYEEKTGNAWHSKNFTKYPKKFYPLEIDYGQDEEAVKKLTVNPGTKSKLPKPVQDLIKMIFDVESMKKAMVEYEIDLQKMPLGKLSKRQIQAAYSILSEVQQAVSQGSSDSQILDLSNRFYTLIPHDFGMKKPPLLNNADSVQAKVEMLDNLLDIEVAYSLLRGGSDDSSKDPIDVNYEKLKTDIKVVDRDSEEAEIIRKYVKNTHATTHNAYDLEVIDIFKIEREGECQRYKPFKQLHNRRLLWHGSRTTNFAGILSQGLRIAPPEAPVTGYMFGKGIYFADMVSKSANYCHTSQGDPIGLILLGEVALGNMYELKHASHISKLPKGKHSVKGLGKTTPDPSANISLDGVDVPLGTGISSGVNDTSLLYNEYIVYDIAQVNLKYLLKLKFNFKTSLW

B1: Histone PARylation Factor 1 (HPF1), Q9NWY4 1-346 (natural protein)
chain: MVGGGGKRRPGGEGPQCEKTTDVKKSKFCEADVSSDLRKEVENHYKLSLPEDFYHFWKFCEELDPEKPSDSLSASLGLQLVGPYDILAGKHKTKKKSTGLNFNLHWRFYYDPPEFQTIIIGDNKTQYHMGYFRDSPDEFPVYVGINEAKKNCIIVPNGDNVFAAVKLFLTKKLREITDKKKINLLKNIDEKLTEAARELGYSLEQRTVKMKQRDKKVVTKTFHGAGLVVPVDKNDVGYRELPETDADLKRICKTIVEAASDEERLKAFAPIQEMMTFVQFANDECDYGMGLELGMDLFCYGSHYFHKVAGQLLPLAYNLLKRNLFAEIIEEHLANRSQENIDQLAA
In the case of B1, in test [1], the Kd was 0.54 µM and 0.55 µM; the koff came to 0.06 s⁻¹; the kon was found to be 100000 M⁻¹ s⁻¹. In test [2], the Kd was 0.48 µM and 0.617 µM; the koff is 0.071 s⁻¹; the kon was found to be 112000 M⁻¹ s⁻¹.
